Key:
DLD-1 cells [1] = assay: Annexin-APC and 7-AAD apoptosis analysis by flow cytometer; assay type: cell-based; conditions: 1,000 nM, 24 or 48 hours; FIG. 1B
Method: In addition, DLD-1 cells, a colorectal cancer cell line with KRAS gene mutation, were seeded at a density of 1×10^5 cells per well in a 6-well plates, cultured for 1 day at 37° C. and the recombinant protein from <Preparation Example 1> was then added to each well at a concentration of 1,000 nM, and the cells were further cultured for either 24 or 48 hours. After washing the cultured cells twice with cold PBD, the cells were stained using Annexin-APC and 7-AAD apoptosis kit (Biolegend, US) according to the manufacturer's instructions, and apoptosis was analyzed using a flow cytometer (CytoFLEX, Beckmancoulter) (FIG. 1B).

[2] = test system: KRAS gene mutated pancreatic cancer (MIA PaCa-2) mouse model; assay: survival rate in pancreatic cancer-induced mouse model; assay type: in vivo, mice; conditions: 50 days, tumor size of 1700 mm3 or more considered as time of death, FIG. 6
Method: (§1) To investigate the anticancer activity of the recombinant stabilized galectin-9 protein having the amino acid sequence SEQ ID NO: 1, KRAS gene mutant pancreatic cancer cell line MIA PaCa-2 cells were transplanted and grown for two weeks to form pancreatic tumor tissue subcutaneously in mice, and the mice were then administered with the recombinant protein, and changes in body weight were monitored.
(§2) Specifically, the experiments were conducted in accordance with the Guide for the Care and Use of Laboratory Animals (NRC), and the mice were managed accordingly. After collecting mice with an average pancreatic cancer size of 200 nm 3, they were randomly classified into 5 group.
(§3) The experimental groups were classified into five groups (5 mice per group) as follows: control group (PBS), low-dose recombinant stabilized galectin-9 protein administration group (seal-9 0.5 mg/kg), high-dose recombinant stabilized galectin-9 protein administration group (seal-9 5 mg/kg), gemcitabine group (Gemcitabine 50 mg/kg), and combination of seal-9 and gemcitabine (seal-9 5 mg/kg+Gemcitabine 50 mg/kg). The mice were administered with seal-9 the given concentrations twice a week and/or gemcitabine once a week by intraperitoneal injection for 50 days, while monitoring changes in body weight (FIG. 4).
In this case, a pancreatic cancer tissue size of 1700 mm3 or more was considered as the time of death.

[3] = test system: KRAS wild-type or mutant colorectal, pancreatic, lung cancer and ovarian cancer cells (HT-29, DLD-1, HCT-116, SW620, Bx-pc3, L3.6pl, AsPC-1, H226, A549 …); assay: SRB (sulforhodamine B) cell growth assay in cancer cell lines; assay type: cell-based; conditions: 3.2, 16, 80, 400, 2000 or 10,000 nM, 72 hours; compared to negative control NIH3T3 cells; FIG. 1A
Method: To investigate the anticancer activity of the recombinant stabilized galectin-9 protein having the amino acid sequence of SEQ ID NO: 1, cell growth and apoptosis were observed after treatment of the recombinant protein in cancer cell lines having a KRAS wild type or KRAS gene mutation.
Specifically, to investigate the anticancer activity of the recombinant stabilized galectin-9 protein having the amino acid sequence of SEQ ID NO: 1, the protein was treated on cancer cell lines with KRAS wild-type or KRAS gene mutation, and the following cell lines were used: HT-29 for KRAS wild-type pancreatic cancer, DLD-1, HCT-116, and SW620 for KRAS gene-mutated colon cancer, Bx-pc3 for KRAS wild-type pancreatic cancer, L3.6pl and AsPC-1 for KRAS gene-mutated pancreatic cancer, H226 for KRAS wild-type lung cancer, A549 for KRAS gene-mutated lung cancer, SKOV3ip1 for KRAS wild-type ovarian cancer, and SKOV3 for KRAS gene-mutated ovarian cancer, and the cells were seeded at 5×10^3 cells per well in a 96-well plate and cultured at 37° C. for one day, and then the recombinant protein was treated with concentrations of 3.2, 16, 80, 400, 2000, or 10,000 nM per well, and cultured for 72 hours. After 72 hours of incubation, the cell growth was confirmed using the SRB (sulforhodamine B) assay kit (Abcam, US) according to the manufacturer's instructions. […]

DLD-1 cells [4] = assay: colony formation assay; assay type: cell-based; conditions: 0, 50, 100, 250, 500, 1000 nM, 10 days, 3% v/v Matrigel; FIG. 2
Method: To investigate the anti-cancer activity of the recombinant stabilized galectin-9 protein having the amino acid sequence of SEQ ID NO: 1, the proliferation of cancer cells by colony formation assay was analyzed by treating KRAS mutant colorectal cancer cell lines with the recombinant protein.
Specifically, DLD-1 cells, a colorectal cancer cell line with KRAS gene mutation, were seeded in 6-well plates at 5×10^3 cells per well in a medium containing 3% v/v Matrigel, and then treated with the recombinant protein from <Preparation Example 1> at concentrations of 0, 50, 100, 250, 500, 1000 nM and incubated for 10 days. Then, after washing with phosphate-buffered saline, colonies were stained with a solution of 0.05% crystal violet, 1% formaldehyde, and 1% methanol in phosphate-buffered saline for 20 minutes at room temperature. The plate was then washing with distilled water and dried at room temperature for 16 hours. The number of colonies was measured by capturing images of the stained and dried plates and analyzing the images (FIG. 2).

[5] = body weight changes in pancreatic cancer-induced mouse model; assay type: in vivo, mice; conditions: intraperitoneal, 50 days, FIG. 4
Method: as §1, §2, §3

[6] = test system: KRAS gene mutant pancreatic cancer (MIA PaCa-2) mouse model; assay: pancreatic cancer tissue size (MRI) in pancreatic cancer-induced mouse model; assay type: in vivo, mice; conditions: 50 days, FIG. 5; for size of pancreatic cancer tissue compared to the control group: intraperitoneal
Method: as §1, §2, §3
To investigate the anticancer activity of the recombinant stabilized galectin-9 protein having the amino acid sequence of SEQ ID NO: 1, the KRAS gene mutant pancreatic cancer (MIA PaCa-2) mouse model was established by using the same method described in Example <2-1> above, and seal-9 and/or gemcitabine were administered into the mice for 50 days and the change in the size of the pancreatic cancer tissue was evaluated using magnetic resonance imaging (MRI) (FIG. 5).

[7] = high-dose, seal-9 5 mg/kg twice a week
[8] = low-dose, seal-9 0.5 mg/kg twice a week

B1: seal-9: recombinant stabilized galectin-9 protein of SEQ ID NO: 1; linker region deleted, CCRD positions 1 to 10 deleted, Ala at position 13 substituted with Pro (protein)
chain: MAFSGSQAPYLSPAVPFSGTIQGGLQDGLQITVNGTVLSSSGTRFAVNFQTGFSGNDIAFHFNPRFEDGGYVVCNTRQNGSWGPEERKTHMPFQKGMPFDLCFLVQSSDFKVMVNGILFVQYFHRVPFHRVDTISVNGSVQLSYISFQHPPYPMPFITTILGGLYPSKSILLSGTVLPSAQRFHINLCSGNHIAFHLNPRFDENAVVRNTQIDNSWGSEERSLPRKMPFVRGQSFSVWILCEAHCLKVAVDGQHLFEYYHRLRNLPTINRLEVGGDIQLTHVQT
modifications: sGal-9
notes: linker region deleted, CCRD positions 1 to 10 deleted, Ala at position 13 substituted with Pro
**Q.** Which apoptosis (DLD-1 cells [1]) does the source give for B1 here?
**A.** induced apoptosis

**Q.** What about the survival rate ([2]; high-dose, seal-9 5 mg/kg) of the same molecule?
**A.** superior survival rates

**Q.** And the survival rate ([2]; low-dose, seal-9 0.5 mg/kg)?
**A.** superior survival rates

**Q.** What about the cell growth [3] of the same molecule?
**A.** inhibited cell growth

**Q.** And the “colony formation ability / proliferation of cancer cells” value (DLD-1 cells [4])?
**A.** inhibited the proliferation of cancer cells in a concentration-dependent manner

**Q.** And the “changes in body weight” value [5, 7]?
**A.** no significant changes in body weight

**Q.** What about the “changes in body weight” value [5, 8] of the same molecule?
**A.** no significant changes in body weight

**Q.** What about the “size of pancreatic cancer tissue compared to the control group” value [6, 7] of the same molecule?
**A.** decreased significantly

**Q.** What about the “size of pancreatic cancer tissue compared to the control group” value [6, 8] of the same molecule?
**A.** decreased significantly

**Q.** And the “size of pancreatic cancer tissue, seal-9 compared with conventional chemotherapy” value ([6]; seal-9 0.5 or 5 mg/kg vs gemcitabine 50 mg/kg)?
**A.** superior effect at lower doses than conventional chemotherapy
